Experimental data: publication PMC4980432, “Structure of a Complete ATP Synthase Dimer Reveals the Molecular Basis of Inner Mitochondrial Membrane Morphology” (Molecular Cell, 2016)
Blank lines part the entries; values can stand above or below the binder they belong to.

Assays:
[1] = biological target: T1, Y. lipolytica F1Fo-ATP synthase subunit a (Yarrowia lipolytica, UniProt Q36258 7-255); test: cryo-EM structure; single-particle cryo-EM of the purified dimer 2YLF1Fo; C2 symmetry imposed; 7.8 Å overall, 6.9 Å for F1 and 6.2 Å for the Fo dimer after masking; fitted with the YLF1c10 X-ray structure and homology models of the peripheral stalk; conditions: both partners purified
T1 construct: subunit a of the mitochondrial F1Fo-ATP synthase, Yarrowia lipolytica; mitochondrially encoded; helices aH1 to aH6; source: endogenous, purified from Y. lipolytica mitochondria as part of 2YLF1Fo
T1 sequence (looked up): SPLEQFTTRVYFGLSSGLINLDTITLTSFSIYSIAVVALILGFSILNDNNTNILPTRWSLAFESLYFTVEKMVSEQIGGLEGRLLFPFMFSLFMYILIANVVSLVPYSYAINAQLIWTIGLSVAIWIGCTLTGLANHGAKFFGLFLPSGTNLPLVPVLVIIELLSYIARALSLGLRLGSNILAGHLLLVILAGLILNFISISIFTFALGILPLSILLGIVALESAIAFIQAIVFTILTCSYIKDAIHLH

[2] = biological target: the molecule itself; test: as above
[3] = biological target: T2, Y. lipolytica F1Fo-ATP synthase subunit α (Yarrowia lipolytica, UniProt Q6C326 25-536); test: crystal structure; YLF1c10 subcomplex crystallised from the 1YLF1Fo complex without added nucleotides or inhibitors; 3.5 Å; molecular replacement with a model based on S. cerevisiae F1c10; conditions: both partners purified
T2 construct: subunit α of the mitochondrial F1Fo-ATP synthase, Yarrowia lipolytica; three copies in each F1 head, in the states αE, αTP and αDP; also called αE; αTP; source: endogenous, purified from Y. lipolytica mitochondria as part of 2YLF1Fo, 1YLF1Fo and the YLF1c10 subcomplex

[4] = biological target: T2, Y. lipolytica F1Fo-ATP synthase subunit …; test: cryo-EM structure; single-particle cryo-EM of the purified dimer 2YLF1Fo; C2 symmetry imposed; 7.8 Å overall, 6.9 Å for F1 and 6.2 Å for the Fo dimer after masking; fitted with the YLF1c10 X-ray structure and homology models of the peripheral stalk; conditions: both partners purified
[5] = biological target: the molecule itself; test: crystal structure; YLF1c10 subcomplex crystallised from the 1YLF1Fo complex without added nucleotides or inhibitors; 3.5 Å; molecular replacement with a model based on S. cerevisiae F1c10
[6] = biological target: T3, e/g heterodimer of the Y. lipolytica F1Fo-ATP synthase (subunits e and g) (Yarrowia lipolytica, UniProt B5FVG3 1-90; B5FVB8 1-138); test: cryo-EM structure; single-particle cryo-EM of the purified dimer 2YLF1Fo; C2 symmetry imposed; 7.8 Å overall, 6.9 Å for F1 and 6.2 Å for the Fo dimer after masking; fitted with the YLF1c10 X-ray structure and homology models of the peripheral stalk; conditions: both partners purified
T3 construct: subunit e of the mitochondrial F1Fo-ATP synthase, Yarrowia lipolytica; predicted N-terminal trans-membrane helix with a GxxxG motif and a hydrophilic C terminus; subunit g of the mitochondrial F1Fo-ATP synthase, Yarrowia lipolytica; N-terminal matrix domain and predicted C-terminal trans-membrane helix with a GxxxG motif; the two subunits are not resolved from each other in the 6.2 Å map; also …
T3 sequence (looked up) 1: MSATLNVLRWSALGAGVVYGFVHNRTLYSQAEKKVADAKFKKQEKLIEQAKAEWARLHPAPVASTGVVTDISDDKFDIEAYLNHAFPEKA
T3 sequence (looked up) 2: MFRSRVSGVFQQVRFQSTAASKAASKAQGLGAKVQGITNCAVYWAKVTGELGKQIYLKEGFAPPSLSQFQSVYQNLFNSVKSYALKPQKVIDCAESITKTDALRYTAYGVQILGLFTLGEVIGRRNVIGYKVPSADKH

T2 sequence (Q6C326 25-536): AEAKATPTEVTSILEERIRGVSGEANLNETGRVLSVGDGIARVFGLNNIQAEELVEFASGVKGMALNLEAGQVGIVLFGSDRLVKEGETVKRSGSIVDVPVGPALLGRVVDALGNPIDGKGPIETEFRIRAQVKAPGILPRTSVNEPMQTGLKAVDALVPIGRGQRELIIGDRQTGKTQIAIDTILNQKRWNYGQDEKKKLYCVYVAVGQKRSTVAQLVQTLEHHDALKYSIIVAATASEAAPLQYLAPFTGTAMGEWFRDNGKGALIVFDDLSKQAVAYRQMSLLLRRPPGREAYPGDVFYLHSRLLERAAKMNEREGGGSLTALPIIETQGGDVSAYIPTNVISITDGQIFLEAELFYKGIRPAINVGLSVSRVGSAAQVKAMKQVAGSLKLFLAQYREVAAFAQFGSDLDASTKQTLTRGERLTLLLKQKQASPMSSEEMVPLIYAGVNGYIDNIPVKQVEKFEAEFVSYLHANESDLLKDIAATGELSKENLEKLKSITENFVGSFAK

B1: Y. lipolytica F1Fo-ATP synthase subunit 8 (natural protein, Yarrowia lipolytica, UniProt Q36257 1-48, looked up)
chain: MPQLVPFYFTNQIFYGFASLSVIVYLFSIYILPHYLEIYVTRIFITKT
notes: subunit 8 of the mitochondrial F1Fo-ATP synthase, Yarrowia lipolytica; 48 residues; N-terminal MPQL motif, trans-membrane helix ended by Pro33; mitochondrially encoded; also called A6L in human; source: endogenous, purified from Y. lipolytica mitochondria as part of 2YLF1Fo
binding result [1]: binds

B2: Y. lipolytica F1Fo-ATP synthase subunit f (natural protein, Yarrowia lipolytica, UniProt Q6C9E6 7-103, looked up)
chain: LSTLIPPKVASPATLHGAPNAKRMADVVSFYKALPQGAAPALPKTANPFKLYYRKYFHPKSGKASGAPLLHLILGIFLFGYISDYQFHLKHHKNGAH
notes: subunit f of the mitochondrial F1Fo-ATP synthase, Yarrowia lipolytica; nuclear-encoded; in yeast a 100-residue subunit with a hydrophilic N-terminal domain and a predicted C-terminal trans-membrane helix; source: endogenous, purified from Y. lipolytica mitochondria as part of 2YLF1Fo
binding result [2]: binds

B5: Y. lipolytica F1Fo-ATP synthase subunit h (natural protein, Yarrowia lipolytica, UniProt Q6C2V6 20-108, looked up)
chain: NLISEAYTREVRAFKAPKLSAKDAEGQVKPWSAPSAPKPPVVEGADAAELQAYAEAPVDVEGQTNSKSASPQANDEDWLAFEEEEGVAV
notes: peripheral stalk subunit h of the mitochondrial F1Fo-ATP synthase, Yarrowia lipolytica; also called equivalent of bovine F6; source: endogenous, purified from Y. lipolytica mitochondria as part of 2YLF1Fo
binding result [4]: binds

B6: Y. lipolytica F1Fo-ATP synthase subunit d (natural protein, Yarrowia lipolytica, UniProt Q6CFH9 1-176, looked up)
chain: MSVAAARSSAVKVDWGKIVSSLGLTGATVSSLQAFRKRHEEAKKNAYELQNQPTTVDFAHYRKVLKNQKVVDEIEQHFKSFKPVTYDVSKQLKTIDAFEAKAIEDAKATEGKVNQEIGDLQKTLENIESARPFDQLSVDDVFKARPDLEKKIEEMVKKGRWSVPGYNEKFGSVVLM
notes: peripheral stalk subunit d of the mitochondrial F1Fo-ATP synthase, Yarrowia lipolytica; also called d subunit; source: endogenous, purified from Y. lipolytica mitochondria as part of 2YLF1Fo
binding result [4]: binds

Continued, in another order:

binding result [3]: binds
B3: Y. lipolytica F1Fo-ATP synthase subunit γ (natural protein, Yarrowia lipolytica, UniProt Q6C338 22-293, looked up)
chain: ATLREIEMRLKSIKNIEKITNTMKIVASTKLGKAQRAMATSKVYNEASEKVFENSETAVPENIEKRLWVVVSSDKGLCGSIHSQLARTVRRKLLDFESGEKLIDIVAVGEKIKAQLGRSNPEQMRLSFGGTGKEAPTFEEAAHIADEILALDTQYDDIEIVYNKVLSGISFEPIMKESYSAKAIEDAPKFGQYELEDDVVKNLADFSLANTIYAAMAEGHAAEISARRNAMDNASKNASDMINKYSILYNRTRQAVITNELVDIITGASSLE
notes: subunit γ of the mitochondrial F1Fo-ATP synthase, Yarrowia lipolytica; also called central γ subunit; source: endogenous, purified from Y. lipolytica mitochondria as part of the YLF1c10 subcomplex (from 1YLF1Fo)

binding result [4]: binds
B4: Y. lipolytica F1Fo-ATP synthase subunit OSCP (natural protein, Yarrowia lipolytica, UniProt Q6C9B1 25-214, looked up)
chain: APVKVPVQLFGLDGTYATALYTAAAKESDLSKTEGSLAKLRDVFAQQPEVAQIVSNPTLSHEDKQTVVNVLSQAVGGDKTLTNFLTVISDNNRLALIPGIIEKFETLVNASKGLVEATVTSASELDKKTVNRIQAAIAGSSFVGEGELKLNLKVNPDILGGLIVEVAERTVDVSVASKIARLNHVLSEPI
notes: peripheral stalk subunit OSCP of the mitochondrial F1Fo-ATP synthase, Yarrowia lipolytica; source: endogenous, purified from Y. lipolytica mitochondria as part of 2YLF1Fo

binding result [1]: binds
B7: Y. lipolytica F1Fo-ATP synthase subunit c (natural protein, Yarrowia lipolytica, UniProt Q37695 1-76, looked up)
chain: MQLVLAGKYIGAGLASIGLVGAGIGIAIVFAALINGVSRNPALKGQLFTYSILGFALSEATGLFALMIAFLLLYAV
notes: subunit c (subunit 9) of the mitochondrial F1Fo-ATP synthase, Yarrowia lipolytica; mitochondrially encoded; ten copies form the rotor ring; also called c subunit; c-ring; source: endogenous, purified from Y. lipolytica mitochondria as part of 2YLF1Fo and the YLF1c10 subcomplex
stoichiometry N [5]: 10

binding result [4]: binds | binding result [6]: binds
B8: Y. lipolytica F1Fo-ATP synthase subunit b (natural protein, Yarrowia lipolytica, UniProt Q6C105 15-217, looked up)
chain: SNQVDPKVKATSILDSIPGNNVLSKTGVLATGVLGSIYAISNELYIVNDESIVLGVFAAFVVVVAKLGGPGYTSWADGYIENMRNILNTTRDKHTDAVKERIGDVSKLKDVVKTTQDLFAVSKDTVKLEAEVFETKQQVVLAAEAKSVLDSWVRYENSVRQREQKLLTETVISKIEKDLKDPKFQQKILQQSVEDIEKLFAKA
notes: subunit b of the mitochondrial F1Fo-ATP synthase, Yarrowia lipolytica; two trans-membrane helices at its N terminus; also called peripheral stalk subunit b; source: endogenous, purified from Y. lipolytica mitochondria as part of 2YLF1Fo
